Test results taken from paper PMC12416549 (2024).
Residue numbers refer to the chain shown, from its start. Names and notes keep the numbering of the source. One block for each binder: values may come before it.

Molecular target: T1, TNFR1 (Homo sapiens, UniProt P19438)
T1 chain: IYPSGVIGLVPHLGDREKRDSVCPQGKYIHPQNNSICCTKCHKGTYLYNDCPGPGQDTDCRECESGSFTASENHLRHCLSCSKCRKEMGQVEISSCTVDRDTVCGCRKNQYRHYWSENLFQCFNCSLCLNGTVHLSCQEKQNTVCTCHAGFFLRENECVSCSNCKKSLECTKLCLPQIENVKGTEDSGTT
Test: yeast display SC50

- apparent Kd (screen): 1.27 nM
B2: V71T (designed binder)
chain: MTLQELLREEALRRAEAEAFRYALELLAEKFPEQKEYLLDLAEEIESQIRSLSGVDVEDVRKFLDKEWAWTKELLAEHPAELAEVEAARAARLAELRAEVEAKVAA

- apparent Kd (screen): 0.718 nM
B5: E101H (designed binder)
chain: B2 chain with T71V, E101H

- apparent Kd (screen): 1.05 nM
B7: K72D (designed binder)
chain: B2 chain with T71V, K72D

- apparent Kd (screen): 0.49 nM
B9: V104Q (designed binder)
chain: B2 chain with T71V, V104Q

- apparent Kd (screen): 0.49 nM
B10: E84P (designed binder)
chain: B2 chain with T71V, E84P

- apparent Kd (screen): 0.539 nM
B11: A98L (designed binder)
chain: B2 chain with T71V, A98L

- apparent Kd (screen): 2.25 nM
B12: V85P (designed binder)
chain: B2 chain with T71V, V85P

- apparent Kd (screen): 0.869 nM
B20: A105K (designed binder)
chain: B2 chain with T71V, A105K

- apparent Kd (screen): 0.593 nM
B21: A105N (designed binder)
chain: B2 chain with T71V, A105N

- apparent Kd (screen): 5.84 nM
B23: W70K (designed binder)
chain: B2 chain with W70K, T71V

- apparent Kd (screen): 0.539 nM
B24: A94T (designed binder)
chain: B2 chain with T71V, A94T

- apparent Kd (screen): 0.539 nM
B26: L96Q (designed binder)
chain: B2 chain with T71V, L96Q

- apparent Kd (screen): 1.86 nM
B32: W70Y (designed binder)
chain: B2 chain with W70Y, T71V

- apparent Kd (screen): 0.49 nM
B35: R92Y (designed binder)
chain: B2 chain with T71V, R92Y

- apparent Kd (screen): 0.593 nM
B40: A88D (designed binder)
chain: B2 chain with T71V, A88D

- apparent Kd (screen): 0.718 nM
B41: E73G (designed binder)
chain: B2 chain with T71V, E73G

- apparent Kd (screen): 0.718 nM
B46: R92D (designed binder)
chain: B2 chain with T71V, R92D

- apparent Kd (screen): 0.593 nM
B52: H78C (designed binder)
chain: B2 chain with T71V, H78C

- apparent Kd (screen): 29.5 nM
B53: W70T (designed binder)
chain: B2 chain with W70T, T71V

- apparent Kd (screen): 0.869 nM
B58: A83C (designed binder)
chain: B2 chain with T71V, A83C

Continued, binder first:

B1: E46S (designed binder)
chain: B2 chain with E46S, T71V
- apparent Kd (screen): 0.49 nM

B3: R14K (designed binder)
chain: B2 chain with R14K, T71V
- apparent Kd (screen): 0.49 nM

B4: F63D (designed binder)
chain: B2 chain with F63D, T71V
- apparent Kd (screen): 7.07 nM

B6: V55N (designed binder)
chain: B2 chain with V55N, T71V
- apparent Kd (screen): 0.956 nM

B8: G54R (designed binder)
chain: B2 chain with G54R, T71V
- apparent Kd (screen): 3.3 nM

B13: V55E (designed binder)
chain: B2 chain with V55E, T71V
- apparent Kd (screen): 15.2 nM

B14: E9F (designed binder)
chain: B2 chain with E9F, T71V
- apparent Kd (screen): 0.49 nM

B15: A23R (designed binder)
chain: B2 chain with A23R, T71V
- apparent Kd (screen): 0.539 nM

B16: A11I (designed binder)
chain: B2 chain with A11I, T71V
- apparent Kd (screen): 0.368 nM

B17: L7A (designed binder)
chain: B2 chain with L7A, T71V
- apparent Kd (screen): 11.4 nM

B18: L12C (designed binder)
chain: B2 chain with L12C, T71V
- apparent Kd (screen): 0.79 nM

B19: E36V (designed binder)
chain: B2 chain with E36V, T71V
- apparent Kd (screen): 1.05 nM

B22: F31A (designed binder)
chain: B2 chain with F31A, T71V
- apparent Kd (screen): 0.49 nM

B25: A28E (designed binder)
chain: B2 chain with A28E, T71V
- apparent Kd (screen): 5.84 nM

B27: K62P (designed binder)
chain: B2 chain with K62P, T71V
- apparent Kd (screen): 3 nM

B28: L39C (designed binder)
chain: B2 chain with L39C, T71V
- apparent Kd (screen): 1.16 nM

B29: W70H (designed binder)
chain: B2 chain with W70H, T71V
- apparent Kd (screen): 12.5 nM

B30: D40Q (designed binder)
chain: B2 chain with D40Q, T71V
- apparent Kd (screen): 0.446 nM

B31: A28Y (designed binder)
chain: B2 chain with A28Y, T71V
- apparent Kd (screen): 22.2 nM

B33: L64T (designed binder)
chain: B2 chain with L64T, T71V
- apparent Kd (screen): 12.5 nM

B34: W70D (designed binder)
chain: B2 chain with W70D, T71V
- apparent Kd (screen): 12.5 nM

B36: G54T (designed binder)
chain: B2 chain with G54T, T71V
- apparent Kd (screen): 0.446 nM

B37: Q48K (designed binder)
chain: B2 chain with Q48K, T71V
- apparent Kd (screen): 7.07 nM

B38: E5W (designed binder)
chain: B2 chain with E5W, T71V
- apparent Kd (screen): 0.539 nM

B39: F31Q (designed binder)
chain: B2 chain with F31Q, T71V
- apparent Kd (screen): 0.653 nM

B42: L24A (designed binder)
chain: B2 chain with L24A, T71V
- apparent Kd (screen): 1.54 nM

B43: F20M (designed binder)
chain: B2 chain with F20M, T71V
- apparent Kd (screen): 0.869 nM

B44: A42W (designed binder)
chain: B2 chain with A42W, T71V
- apparent Kd (screen): 4.83 nM

B45: E67R (designed binder)
chain: B2 chain with E67R, T71V
- apparent Kd (screen): 8.56 nM

B47: P32V (designed binder)
chain: B2 chain with P32V, T71V
- apparent Kd (screen): 0.593 nM

B48: L26M (designed binder)
chain: B2 chain with L26M, T71V
- apparent Kd (screen): 0.593 nM

B49: Q34L (designed binder)
chain: B2 chain with Q34L, T71V
- apparent Kd (screen): 0.539 nM

B50: L64F (designed binder)
chain: B2 chain with L64F, T71V
- apparent Kd (screen): 0.869 nM

B51: E10K (designed binder)
chain: B2 chain with E10K, T71V
- apparent Kd (screen): 8.56 nM

B54: A15E (designed binder)
chain: B2 chain with A15E, T71V
- apparent Kd (screen): 0.718 nM

B55: Q34T (designed binder)
chain: B2 chain with Q34T, T71V
- apparent Kd (screen): 0.539 nM

B56: L38Q (designed binder)
chain: B2 chain with L38Q, T71V
- apparent Kd (screen): 16.7 nM

B57: L41G (designed binder)
chain: B2 chain with L41G, T71V
- apparent Kd (screen): 12.5 nM

B59: K30W (designed binder)
chain: B2 chain with K30W, T71V
- apparent Kd (screen): 0.653 nM
